Source: the DeepSol protein solubility set

assay: soluble on expression in E. coli; label from the status in PepcDB or PDB records

Row | Sequence | soluble on expression in E. coli
1 | MAHHHHHHMYDVKSIHIFRKVKDKDKGKSVILRGLNDNFFNAILVCMYEIVIYLNFANCEDGSTNKPSNKKKKKKGDDRNETTYYVKSARNENNAYRSNVKEVISHNKNKKKINGASGNAAVTREEKGKAERSGDFPGGGENMNDDKENPNQITLWSSNNHEEFGYEYIKDIIKKEEKELYETDKMYHNSNDEYSSHTSDSVEQ | not soluble
2 | MRLYINEIKIKDDILYCYTEDSIKGLSEVGQMLVDSDNYAFAYTLDDGKAYAYLIFVQETWTMLHENTTKKIIINDELELTEFHQELTYILDNIKGNNNYGKEFVATVEETFDIE | not soluble
3 | MEKIIVRGGKRLNGTVRVEGAKNAVLPIIAAALLASDGKNVLSEVPVLSDVYTINEVLRHLNAEVVFENNQVTIDASKELNIEAPFEYVRKMRASVQVMGPLLARNGRARIALPGGCAIGSRPIDQHLKGFEAMGAKVQVGNGFVEAYVEGELKGAKIYLDFPSVGATENIMSAATLAKGTTILENAAKEPEIVDLANFLNAMGAKVRGAGTGTIRIEGVDKLYGANHSIIPDRIEAGTFMVAAAITGGDILIENAVPEHLRSITAKMEEMGVKIIEENEGVRVIGPDKLKAVDIKTMPHPGFPTDMQSQMMALLLQADGTSMITETVFENRFMHVEEFRRMNADIKIEGRSVIMNGPNSLQGAEVGATDLRAAAALILAGLVSEGYTRVTELKHLDRGYVDFHKKLAALGATIERVNEKVEEVKEQEVSDLHA | not soluble
4 | MIASKMPREVRLPSFQIEIIGAMSTYKIYCQSLLPLSHSALLIMVAPSFPLLNLPEKSLKEVFCNMSVVQQTCISMISEKTKNLVRKFHIFKQVQIWLDFSDSLRCYMSLKGISLSIWHTPMWH | not soluble
5 | MGSDKIHHHHHHMRYDIVIIGGAIVGSSIAYYLREEGFSGSIALIERDPQFAHAATTLSMASIRQQFSIPENIRLSQFTLKLFRRLKETFGTDADIGFREGGYLILAGENGLPVLKANHDAQVAEGADIVLEDAEQLTRRFAWLSAEGISAGAYGRTGEGWFDAHAMLMLFRKALRDKKIDFIAASVTGIARDGDRVTGVSLDNGQTLEAGIVVNAAGPNAGKVAALAGLALPVEPRKRNVFVFEAREKYADMPLLVDPSGIYVRPEGSVYLTGGAEPEEGDGPADPSDFEVDWPLFEEVIWPVLATRIPAFEAIKATRAWAGHYDYNTLDQNAVIGPHPEVGNFIFANGFSGHGLQQAPAVGKALAEFLVHGGYRTIDCSAFGYGRVAEGRAFRELNVI | not soluble
6 | MSIISTKYLLQDAQANGYAVPAFNIHNAETIQAILEVCSEMRSPVILAGTPGTFKHIALEEIYALCSAYSTTYNMPLALHLDHHESLDDIRRKVHAGVRSAMIDGSHFPFAENVKLVKSVVDFCHSQDCSVEAELGRLGGVEDDMSVDAESAFLTDPQEAKRFVELTGVDSLAVAIGTAHGLYSKTPKIDFQRLAEIREVVDVPLVLHGASDVPDEFVRRTIELGVTKVNVATELKIAFAGAVKAWFAENPQGNDPRYYMRVGMDAMKEVVRNKINVCGSANRISA | soluble
7 | MGHHHHHHSHMDKQSSAGGVKRSVPCDSNEANEMMPETPTGDSDPQPAPKKMKTSESSTILVVRYRRNFKRTSPEELLNDHARENRINPLQMEEEEFMEIMVEIPAK | not soluble
8 | MGHHHHHHHHHHSSGHIEGRHMDINGVLLLDKPQGMSSNDALQKVKRIYNANRAGHTGALDPLATGMLPICLGEATKFSQYLLDSDKRYRVIARLGQRTDTSDADGQIVEERPVTFSAEQLAAALDTFRGDIEQIPSMYSALKYQGKKLYEYARQGIEVPREARPITVYELLFIRHEGNELELEIHCSKGTYIRTIIDDLGEKLGCGAHVIYLRRLAVSKYPVERMVTLEHLRELVEQAEQQDIPAAELLDPLLMPMDSPASDYPVVNLPLTSSVYFKNGNPVRTSGAPLEGLVRVTEGENGKFIGMGEIDDEGRVAPRRLVVEYPA | soluble
9 | MKRIDLLLNVLDSTFDKESWYAPFKYAIEGLTAEQAMWKPAGETTNTIWENVNHLTYYKERLAANLEGREWTHNLDGNDTFYLTKQSNNDTEWKEVVERSENAQRNLRQVLSAISERELEQNSLEGKLLDIMLHDAYHTGQIIQLRKMQGAWPSKR | not soluble
10 | AQSRTLLAGIVQQQQQLLDVVKRQQELLRLTVWGTKNLQTRVTAIEKYLKDQAQLNAWGAAFRQVAHTTVPWPNASLTPKWNNETWQEWERKVDFLEENITALLEEAQIQQEKNMYELQKLNS | soluble
11 | GGSGGTSTAGNPNVNVPNNQITAKSKKEFIQQAMPIAKAIEEKWGVPAEVVIAQAALESGWGKHVKGNAYFGIKGKGSQGSINFGTHEVINGKKISINDNFASYGGFGDAANGYGEFLNKNKRYREAFKHKDNPVEFAKAIARAGYATDPDYANKLTKIIQSNKF | not soluble
12 | MSLKARFLLLAALLSGVAGAYTVKKGDTLYSLARGSGLTVDALMRLNGLSTPELRVGQVIKLPGEGAATPATPAPAAPTPATPAPAAPAPAPAVPTKLPTVATAANVLKLPGVTITAPKALKMGDGFALRLSGEQAANVTVRFPSELGEDVRQPNEELRPLWSSGQYIVPGRVVLGKTTPVIYEVRLGGDVVRGQIPVGDLGQRVQHLNLPPSISKVLQDPAREAEDAAVEQAYQRRTPQQWQQPFASALASGKATSSSFGQPRTYVAGGKVAYHYGTDYPARSGTAVLAINDGTVVIAGRYPVRGGLVVIDHGAGVVSLYFHQSKVTAKVGQQIKRGQKVGEVGSTGLSAGPHLHLEVRVRGEGTNPAGWMGKLWPEGHHHHHH | not soluble
13 | SLKKEISILNIPFYNTTQAGFVEELYMAAKNGERRFVVTANPEIVMHARTDKEFEAILGQADYIVPDGIGIIMASEKLGEPLKERVTGYDTMVGLLNKPLSCYFLGAKPEISEVVEAKVREKFPQAVVCGVHHGYFDVLESEAIAKEILVAQPDVIFVALGSPAQEKWILSQIANFTKGIFIGVGGSFDVLTDSVKRAPKIWIKLRLEWVYRLLSNPSRWRRFFAIPQFMLVIRKERKRLKKG | soluble
14 | MKAKPLSQDPGSKRYAYRINKEENRKELKHVKINESSLVQEGQKIDLPKKRYYRQRAHSNPFSDHQLEYPVSPQDMDWSKLYPYYKNAENGQMTKKVTIADIGCGFGGLMIDLSPAFPEDLILGMEIRVQVTNYVEDRIIALRNNTASKHGFQNINVLRGNAMKFLPNFFEKGQLSKMFFCFPDPHFKQRKHKARIITNTLLSEYAYVLKEGGVVYTITDVKDLHEWMVKHLEEHPLFERLSKEWEENDECVKIMRNATEEGKKVERKKGDKFVACFTRLPTPAIL | soluble
15 | MEWYMGKYIRPLSDAVFTIASDDLWIESLAIQQLHTTANLPNMQRVVGMPDLHPGRGYPIGAAFFSVGRFYPARRRGNGAGNRNGPLL | not soluble
16 | MAEGGGGVGVVYVLENEAYLSKEGGTLKVSRRAGREVLLQKPLIAVEEIVILGNAVVTPALLKHCAQEGVGIHYLSPTGTYYAGLTRTPSKNAPARVAQFKAYLEPTWKLALAQRFVLGKIRNGLVFLRRNGAEGWERLKEALLEAERAQDEEALRGAEGRAADLYFRAFAELLPEEFAFGERSRRPPRDPANSLLSLAYTLLAKECESALLVAGLDPYVGYLHEVRYGRPSLALDLMEEFRSVLADSVVLSLLNNRRVTLEDFDDSEGFPRLRKEAWPKFLRAWEGRLNERIQHPLLGKRLAYREILLAQARILVKHLLGELPRYEPFAVR | soluble
17 | MSLTDNLQDLISTKLAAAIANPLFPAVDSQLRAGRHISLDQLDNHAFLMDFQGELDSFYRRYNVELIRAPEGFFYLRPKATTLIARSVLTELEMLVGKVLCYLYLSPERLAQQGIFSTQEVYDELLNLADENKLLKAVNQRSSGSDLDKQKLAEKVRAALNRLRRLGMIHGVGEQNSGKFTIAEAVFRFGAEVRAGDDPREAQLRPIRDGRPATPGFWAAGKTRSATGGEHRDEGGDEGGDEERAEGHHHHHH | soluble
18 | VEQSANAFLLVNCNGVVEYVNPSFTAITQYSSEEVSGNKLSELPALENLNQLLLEANSSLTSSNSWQGEFKSRRKNLEPYWGQLSISKVYGDNRELTHYIGIYEDIT | not soluble
19 | MSVQNGFTAKIIRFVPHFVALRLSWTHNDLKAEGLEQFVEECLPAIRENNPQVKYFLQRSYTTCDPFVVGEYSWLRHRKKRVNWKSKEQVLSMIEEMSIGGDYREGYKRGVNRRLPRGQELWDTETMGHDVFHVTSKWKADIPEEDELPITAKTHPNFTYRKY | not soluble
20 | GMGILSGNPQDEPLHYGEVFSTWTYLSTNNGLINGYRSFINHTGDEDLKNLIDEAIQAMQDENHQLEELLRSNGVGLPPAPPDRPAARLDDIPVGARFNDPEISATISMDVAKGLVTCSQIIGQSIREDVALMFSQFHMAKVQFGGKMLKLNKNKGWLIPPPLHSDRPIKE | soluble
21 | MGSDKIHHHHHHMANELKVLEGMDVVALARKHSDQATVSGQVIPWQTSLSFDPSVDSDSTVTKDGNVATRSSASTDLEVEFLNNTAAIADVMYDSLFDGELLDFWILYRKRKNSAGKYYAWYMQVTVQEDSSDNDPDDHSTRDVTFSVNGTPKRGWTTLDDETQEQVDYVFLGVGKVTDTDKTGGGTVWDKDVDPGTNTADTAPAQSSSGTAPAQGGSSTGA | not soluble
22 | MIRLSNENTIFFMDKENVPIASCQSGDTVIFETKDCFSDQITNEEQALTSIDFNRVNPATGPLYVEGARRGDMLEIEILDIKVGKQGVMTAAPGLGALGESLNSPTTKLFPIEGDDVVYSTGLRLPLQPMIGVIGTAPPGEPINNGTPGPHGGNLDTKDIKPGTTVYLPVEVDGALLALGDLHAAMGDGEILICGVEIAGTVTLKVNVKKERMFPLPALKTDTHFMTIASAETLDAAAVQATKNMATFLANRTALSIEEAGMLLSGAGDLYVSQIVNPLKTARFSLALHYFEKLGVDLCNLEHHHHHH | soluble
23 | AFEKKTANIYTYKSTSGVTSFSDIEPLDVDFSRYRFDCYACEVDSLIDWRKATLYLQPYKNDINKAALKYDIDPAFVRAVIHAESHFNPQAVSKQGAQGLMQLMPATAKELGVRNSLSAQQNIKGGVKHLARLLRKYKGDNKLASAAYNAGEGAVKRHGGIPPYKETQVYVERVGILHQRYGRFSH | not soluble
24 | MDGPKPNLASAASMESLNSVSSEATNPSQVRTLFVSGLPMDAKPRELYLLFRGCRGYEGALLKMTSKNGKPTSPVGFVTFLSQQDAQDARKMLQGVRFDPECAQVLRLELAKSNTKVARPKQSPPPPQHAALSAAAAGVPQFLAPMQHDLLLDPQSAALFNEQQLLALSLPHLHAAQALQAAYMPASALQQYSQNQLFAAAQMHPAAAAAASLQHSQQASQASTSACSTLFVANLSAEVNEDTLRGVFKAFSGFTRLRLHNKNGSCVAFVEYSDLQKATQAMISLQGFQITANDRGGLRIEYARNKMADVNG | soluble
